Data taken from patent US20180273632A1 (BIOCEROX PRODUCTS B V, published 2018).
One block for each molecule: values may come before it.

Experiments:
[1] = target: T1, human CD134 (full-length, on cells) (human, UniProt P43489 29-277); assay: flow cytometry, PHA-stimulated human T lymphocytes, two donors
T1 construct: also called OX40; TNFRSF4
T1 sequence: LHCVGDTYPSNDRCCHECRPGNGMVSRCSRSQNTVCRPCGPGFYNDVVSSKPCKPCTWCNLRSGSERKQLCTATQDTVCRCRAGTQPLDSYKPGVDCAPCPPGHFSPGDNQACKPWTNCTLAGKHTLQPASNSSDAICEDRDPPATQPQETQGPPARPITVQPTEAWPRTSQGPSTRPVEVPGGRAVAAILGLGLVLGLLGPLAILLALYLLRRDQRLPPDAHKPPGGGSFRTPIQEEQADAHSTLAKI
Protocol: PHA-stimulated (at 10 μg/mL for 2 days; see above) human CD134 expressing T lymphocytes were generated. Cells were harvested and put at 1-2×10⁶ cells/mL in ice chilled PBS/BSA/NaN₃ supplemented with 10% HPS (blocking Fcγ receptors; BioWhittaker). […] After extensive washing in PBS/BSA/NaN₃, cells were subsequently incubated with 1:200 diluted PE-conjugated goat anti-mouse IgG antibodies (Jackson ImmunoResearch) for 30 minutes at 4° C. […] After extensive washing in PBS/BSA/NaN₃, cells were fixed in 2% formaldehyde in PBS/BSA/NaN₃ for 30 minutes at 4° C.

[2] = target: T1, human CD134 (full-length, on cells); assay: flow cytometry, PHA-stimulated human T lymphocytes
[3] = target: T2, human CD134-derived peptide (truncated CRD3 A1-module-CRD4 subdomain A1-module, amino acids 108-146) (human); assay: ELISA, plate coated with 10 ng/well huCD134 peptide, HRP goat anti-mouse IgG Fcγ, n=1
T2 construct: Synthesized by Pepscan Presto; coated on ELISA plates at 10 ng/well
T2 peptide: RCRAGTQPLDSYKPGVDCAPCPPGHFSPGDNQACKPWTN
Protocol: (§1) Ninety six-wells flat-bottom ELISA plates (Corning) were coated with 10 ng/well human CD134-derived peptide (synthesized by Pepscan Presto, Lelystad, The Netherlands), which corresponded to amino acid sequence of truncated CRD3 A1-module-CRD4 subdomain A1-module (see SEQ ID NO. 38) or with 10 ng/well human fibronectin-derived control peptide (synthesized by Pepscan Presto, Lelystad, The Netherlands), which corresponded to amino acid sequence of extra type III structural domain (see SEQ ID NO. 37) in PBS o/n at 4° C. After extensive washing in PBS/0.05% Tween 20, plates were blocked in PBS/0.05% Tween 20/1% BSA fraction V (Roche) for 1 hour at RT. […] After extensive washing in PBS/0.05% Tween 20, binding of antibodies was determined with 1:5000 diluted horseradish peroxidase-conjugated goat anti-mouse IgG Fcγ-specific antibodies (Jackson ImmunoResearch) for 1 hour at RT, followed by a ready-to-use solution of TMB substrate (lnvitrogen) for colorimetric detection. After adding 1 M H₂SO₄, optical densities was measured at a wavelength of 450 nm (reference wavelength of 655 nm) using a microplate reader (BioRad).

[4] = target: T3, 'truncated (tc) CRD4' construct of human CD134 (amino acids 147-277 linked to signal peptide amino acids 1-28) (human, UniProt P43489 147-277); assay: flow cytometry on 293-F cells transiently transfected with the construct, PE goat anti-mouse IgG (Fcγ) [cont.]
T3 construct: also called truncated CRD4
T3 sequence: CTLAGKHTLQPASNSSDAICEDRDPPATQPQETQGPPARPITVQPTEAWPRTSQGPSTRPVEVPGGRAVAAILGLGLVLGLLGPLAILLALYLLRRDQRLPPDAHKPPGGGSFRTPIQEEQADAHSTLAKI
Protocol: (§2) After 48-72 h, surface human CD134 expression on transfected cells was analyzed by FACS analysis. To this end, transfected cells were harvested and put at 1-2×10⁶ cells/mL in ice-chilled PBS/BSA/NaN₃. […] After extensive washing in PBS/BSA/NaN₃, cells were subsequently incubated with 1:200 diluted PE-conjugated goat anti-mouse IgG (Fcγ specific) antibodies (Jackson ImmunoResearch) for 30 minutes at 4° C. After extensive washing in PBS/BSA/NaN₃, cells were fixed in 2% formaldehyde in PBS/BSA/NaN₃ for 30 minutes at 4° C.

[5] = target: T4, human fibronectin-derived control peptide (extra type III structural domain) (human); assay: ELISA, plate coated with 10 ng/well control peptide, HRP goat anti-mouse IgG Fcγ, n=1
T4 construct: Synthesized by Pepscan Presto; coated on ELISA plates at 10 ng/well; also called ED1 peptide
T4 peptide: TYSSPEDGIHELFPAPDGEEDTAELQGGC
Protocol: as §1

[6] = target: T2, human CD134-derived peptide (truncated …); assay: ELISA, plate coated with 10 ng/well huCD134 peptide, HRP goat anti-human IgG Fcγ, n=1
Protocol: as §1, with “anti-human” for “anti-mouse”, “(invitrogen)” for “(lnvitrogen)”

[7] = target: T4, human fibronectin-derived control …; assay: ELISA, plate coated with 10 ng/well control peptide, HRP goat anti-human IgG Fcγ, n=1
Protocol: as §1, with “anti-human” for “anti-mouse”, “(invitrogen)” for “(lnvitrogen)”

[8] = target: T3, 'truncated (tc) CRD4' construct of …; assay: flow cytometry on 293-F cells transiently transfected with the construct, PE goat anti-human IgG (Fcγ) [cont.]
Protocol: as §2, with “PBS/BSA/NaN3.” for “PBS/BSA/NaN₃.”, “anti-human” for “anti-mouse”

[9] = target: T1, human CD134 (full-length, on cells); assay: flow cytometry, PHA-stimulated human CD4 positive T lymphocytes
Protocol: PHA-stimulated (at 10 μg/mL for 1 day; see above) human CD134 expressing T lymphocytes were generated. Cells were harvested and put at 1-2×10⁶ cells/mL in ice-chilled PBS/BSA/NaN3. […] After extensive washing in PBS/BSA/NaN₃, cells were subsequently incubated with 1:50 diluted FITC-conjugated mouse anti-human IgG4 antibodies (Sigma) for 30 minutes at 4° C. […] After extensive washing in PBS/BSA/NaN₃, cells were fixed in 2% formaldehyde in PBS/BSA/NaN₃ for 30 minutes at 4° C.

B1: mouse anti-human CD134 monoclonal antibody clone 12H3 (antibody, mouse IgG1, V domains shown)
VH: EVQLQQSGPELVKPGASVKISCKTSGYTFKDYTMHWVKQSHGKSLEWIGGIYPNNGGSTYNQNFKDKATLTVDKSSSTAYMEFRSLTSEDSAVYYCARMGYHGPHLDFDVWGAGTTVTVSP
VL: DIVMTQSHKFMSTSLGDRVSITCKASQDVGAAVAWYQQKPGQSPKLLIYWASTRHTGVPDRFTGGGSGTDFTLTISNVQSEDLTDYFCQQYINYPLTFGGGTKLEIKR
notes: also called m12H3
binding result [3]: binds
EC50 [1]: 0.5 µg/mL
binding result [4]: no binding (tested: 20.0 µg/mL)
binding result [5]: no binding (tested: 50 µg/mL)

B2: chimeric human IgG4κ anti-human CD134 monoclonal antibody clone 12H3 (antibody, V domains shown)
VH: B1 VH
VL: B1 VL
binding result [6]: binds
binding result [7]: no binding (tested: 50 µg/mL)
binding result [8]: no binding (tested: 20.0 µg/mL)

B4: chimeric human IgG4κ anti-human CD134 antibody clone 20E5 (antibody, V domains shown)
VH: EVQLQQSGPELVKPGASVKMSCKASGYTFTSYVMHWVKQKPGQGLEWIGYINPYNDGTKYNEKFKGKATLTSDKSSSTAYMELSSLTSEDSAVYYCANYYGSSLSMDYWGQGTSVTVSS
VL: DIQMTQTTSSLSASLGDRVTISCRASQDISNYLNWYQQKPDGTVKLLIYYTSRLHSGVPSRFSGSGSGTDYSLTISNLEQEDIATYFCQQGNTLPWTFGGGTKLEIKR
notes: also called hu20E5
EC50 [9]: ~1 µg/mL

Second part, the molecule after the results:

EC50 [1]: 2.5 µg/mL
saturating concentration [2]: 5 µg/mL
Molecule: commercially available mouse anti-human CD134 antibody clone ACT35 (BD Biosciences)

EC50 [1]: 2.5 µg/mL
B3: mouse anti-human CD134 monoclonal antibody clone 20E5 (antibody, mouse IgG1, V domains shown)
VH: B4 VH
VL: B4 VL
notes: also called m20E5
